The experiment concerns the target N-terminally truncated JMJD5 (Jumonji-C domain-containing protein 5), wild type (human, UniProt Q8N371 183-416). Briefly: cell-based or functional assay.

Where no end group is shown, it is not given here.

Sequence of N-terminally truncated JMJD5 (Jumonji-C domain-containing protein 5), wild type (Q8N371 other isoform, or with tags, fused parts or gaps): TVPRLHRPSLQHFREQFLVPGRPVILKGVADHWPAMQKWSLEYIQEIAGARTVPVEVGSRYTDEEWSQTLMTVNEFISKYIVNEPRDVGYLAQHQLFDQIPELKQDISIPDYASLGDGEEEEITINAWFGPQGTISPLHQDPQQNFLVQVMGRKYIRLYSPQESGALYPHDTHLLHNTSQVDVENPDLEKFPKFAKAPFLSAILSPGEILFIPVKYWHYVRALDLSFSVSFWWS

B1: 40S ribosomal protein S6 (RPS6) peptide, residues 129-144 (peptide)
peptide: VPRRLGPKRASRIRKL-NH2
As for B1, the “apparent Km of the RPS6 129-144 peptide in JMJD5-catalysed Arg137 hydroxylation (MALDI-MS-based assay, 37 °C)” value worked out at 60.4 µM.

For the origin of these results see PMC5862942, “JMJD5 is a human arginyl C-3 hydroxylase” (Nature Communications, 2018).
